Experiment [1] concerns BAD Ser155 phosphorylation in HeLa cells. Put plainly: BAD phosphorylation in HeLa cells (western blot band-shift / anti-phospho-Ser155 antibody). In kind it is cell-based, human. As for the experimental part:
A mammalian expression vector encoding mutant HA-BAD S155A, derived from the shorter murine BAD of SEQ ID NO:3, was constructed. HA-BAD S155A has an amino acid sequence wherein the serine at a position corresponding to Ser155 is substituted with alanine. A western blot was performed on WCL prepared from cells expressing the shorter murine BAD (SEQ ID NO:3), HA-BAD S112A, HA-BAD S136A, or HA-BAD S155A, and probed with anti-HA antibody.
A western blot analysis, probed with anti-HA antibody, was performed on lysates produced from the Forskolin treated and untreated (control) cells to determine whether Forskolin could induce the phosphorylation BAD or mutant BAD.
HeLa cells transiently expressing HA-BAD, HA-BAD S155A, HA-BAD S112A/S136A, or HA-BAD S112A/S136A/S155A were treated with Forskolin or a buffer control.
The HA-BAD S112A/S136A double mutant was transiently expressed in HeLa cells, and transfected cell cultures were treated with each of the GPCR ligands, individually and as a group. A western blot analysis, probed with anti-HA antibody, was performed on lysates produced from the treated and untreated (negative control) cells. […] Forskolin (FK) and no treatment (−) were positive and negative controls, respectively (FIG. 6(a), […], respectively).
Non-transfected HeLa cells were treated with Forskolin or L-epinephrine, followed by western blot analysis of cell lysates using anti-BAD antibodies.
Transformants were treated with L-epinephrine, then lysed and subjected to anti-HA western blot analysis.
To further test whether phosphorylation of Ser155 is dependent on the PI 3-kinase/Akt pathway, HeLa cells were transfected with the mutant HA-BAD S155A and pretreated with Wortmannin, an inhibitor of PI 3-kinase. These cells were then stimulated with epidermal growth factor (EGF), lysed and analyzed by western blot analysis.
For immunoprecipitation of all HA-BAD species, 1 μg of the anti-HA antibody was added to the cell lysates, and incubated at 4° C. for one hour. Protein G agarose (Pierce) was then added (50 μl/fraction of 50% slurry) and followed by a one hour incubation at 4° C. Beads were washed with RIPA buffer, boiled in loading buffer (2% SDS, 10% glycerol, 5% β-ME, 60 mM Tris, pH 6.8, 0.002% Bromophenol Blue) and loaded onto polyacrylamide gels. After electrophoresis, proteins were transferred to nitrocellulose membranes, and blots blocked in western wash buffer (40 mM Tris, pH 8.0, 150 mM NaCl, 0.2% NP-40) with 5% BSA for one hour at room temperature. Blots were incubated with primary antibody diluted in western wash buffer with 3% BSA at room temperature for 1–2 hours, washed with western wash buffer and incubated with secondary HRP-coupled antibody diluted in western wash buffer with 1.5% BSA, and washed extensively. Polypeptides were detected with the ECL chemiluminescence according to the manufacturers instructions (Amersham).

Another experiment has as its system HeLa cells. As to the kind of experiment: Fluorescence-based beta-galactosidase assay of BAD-induced cell death in transfected HeLa cells. Details: species or system human. To be noted: SFM vs SFM+EGF, 12 hours. On the procedure: FIG. 12(B) is a graphic representation of the results of a β-galactosidase assay. HeLa cells were co-transfected with the β-galactosidase gene and either HA-BAD (“WT”), HA-BAD S155A (“S155A”), HA-BAD S112A/S136A (“S112A/S136A”) or HA-BAD S112A/S136A/S155A (“AAA”). Transfected cells were then cultured in serum-free medium (SFM) or SFM supplemented with EGF (SFM+EGF) for 12 hours. Cell lysates were prepared and BAD-induced cell death was measured by the loss of β-galactosidase activity in a fluorescence-based assay. Fluorescence was measured at 465 nm. Results shown are the average and standard deviation of triplicate transfections (this experiment was repeated two more times with similar results). Expression levels of HA-tagged BAD and BAD mutants in transfected cell lysates were detected by anti-HA western blot analysis: HA-BAD (“WT”), HA-BAD S155A (“A”), HA-BAD S112A/S136A (“AA”), and HA-BAD S112A/S136A/S155A (“AAA”).
FIG. 12(C) is a graphic representation of the results of a β-galactosidase assay. HeLa cells were co-transfected with the β-galactosidase gene and either an empty vector (“CTL”), wild-type BAD (“WT”), the BAD S155A mutant (“S155A”) or the BAD S155D mutant (“S155D”). Cell lysates were prepared and BAD-induced cell death was measured by the loss of β-galactosidase activity in a fluorescence-based assay. Fluorescence was measured at 465 nm. Results shown are the average and standard deviation of triplicate transfections (this experiment was repeated two more times with similar results).
HeLa cells were co-transfected with the β-galactosidase gene and either wild-type BAD, BAD S155A, BAD S112A/S136A or BAD S112A/S136A/S155A. […] Cell lysates were prepared and BAD-induced cell death was measured by the loss of β-galactosidase activity in a fluorescence-based assay. […]
To measure β-gal activity, HeLa cells were plated in 12-well plates at 5×10^4 cells/well one day prior to transfection. […] Beta-gal activity was measured in extracts using a fluorogenic substrate (MUG, BIO-RAD FluorAce™ β-gal Reporter Assay, #170–3150). […]

B1: BAD S155A: mutant of shorter murine BAD, serine corresponding to Ser155 substituted with alanine; HA- or GST-tagged (protein)
chain: MFQIPEFEPSEQEDASATDRGLGPSLTEDQPGPYLAPGLLGSNIHQQGRAATNSHHGGAGAMETRSRHSSYPAGTEEDEGMEEELSPFRGRSRSAPPNLWAAQRYGRELRRMADEFEGSFKGLPRPKSAGTATQMRQSAGWTRIIQSWWDRNLGKGGSTPSQ
modifications: left off: small tags and cut ends
notes: mutant of shorter murine BAD, serine corresponding to Ser155 substituted with alanine; HA- or GST-tagged
In the case of B1, the “band-shift (phosphorylation) of expressed BAD construct in response to L-epinephrine” value in experiment [1] (HeLa cells) was “significantly reduced”; in experiment [1] (HeLa cells, listed as HA-BAD S155A) it was “limited response”. In addition, the “reactivity with anti-phospho-Ser155 specific BAD antibody” value in experiment [1] (HeLa cells treated with Forskolin) is “failure of the anti-phospho-Ser155 specific BAD antibody to react”. Further, the “growth factor (EGF)- and serum (FCS)-induced phosphorylation of expressed BAD mutant” value in experiment [1] (HeLa cells, anti-HA western blot) is listed as “dramatically reduced”. Moreover, the “phosphorylation of expressed BAD mutant” value in experiment [1] (HeLa cells, anti-HA western blot, compared to single mutation of Ser112 or Ser136) is given as “dramatically reduced the phosphorylation of the murine BAD in HeLa cells”. Besides, the “effect of EGF stimulation on pro-apoptotic activity of the BAD mutant” value in the experiment on HeLa cells is listed as “does not eliminate the protective effect of EGF”.
